Consider 125 sequences from the supplement of paper PMC9112550, “Optimization of the antimicrobial peptide Bac7 by deep mutational scanning” (BMC Biology, 2022).

This data set relates to Escherichia coli TOP10. In words: shrunken log2 fold change of peptide-encoding DNA abundance (4.5 h post-induction vs induction); higher = less antimicrobial activity (less host growth inhibition). The following applies: time post-induction: 4.5 h; library: site-saturation at positions 5, 18, 19, 20.
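Note: peptides expressed intracellularly from a pBAD plasmid library in pooled LB shake-flask culture, induced with 0.3% L-arabinose, DNA abundance read by NGS, three biological replicates, DESeq2 with apeglm shrinkage.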

Regarding RRIRERPPRLPRPRPRPMCWPRP, the “shrunken log2 fold change” value worked out at 0.451.

As to RRIRVRPPRLPRPRPRPTQMPRP, the “shrunken log2 fold change” value came to 0.19. Regarding RRIRIRPPRLPRPRPRPFGKPRP, the “shrunken log2 fold change” value is -0.0569. Under RRIRVRPPRLPRPRPRPAYAPRP stands -0.129; under RRIRMRPPRLPRPRPRPQNGPRP, 0.0258; under RRIRSRPPRLPRPRPRPVKTPRP, -0.0806. For RRIRSRPPRLPRPRPRPDISPRP, the “shrunken log2 fold change” value was -0.0675. As for RRIRMRPPRLPRPRPRPWHEPRP, the “shrunken log2 fold change” value is -0.126. Under RRIRLRPPRLPRPRPRPALRPRP stands 0.178. The figure for RRIRNRPPRLPRPRPRPRHNPRP is -0.403. For RRIRGRPPRLPRPRPRPMTRPRP, the “shrunken log2 fold change” value was found to be 0.519. Consider RRIRHRPPRLPRPRPRPPRIPRP, for which the “shrunken log2 fold change” value stood at 0.0175.

Regarding RRIRMRPPRLPRPRPRPLDYPRP, the “shrunken log2 fold change” value is -0.0259.

Regarding RRIRNRPPRLPRPRPRPVGVPRP, the “shrunken log2 fold change” value was -0.0443.

As for RRIRMRPPRLPRPRPRPCAWPRP, the “shrunken log2 fold change” value amounted to 0.513. Under RRIRTRPPRLPRPRPRPHFEPRP stands -0.323; under RRIRERPPRLPRPRPRPSVGPRP, 0.0861. Under RRIRERPPRLPRPRPRPVPMPRP stands -0.041; under RRIRYRPPRLPRPRPRPFQPPRP, -0.375. In the case of RRIRWRPPRLPRPRPRPIGWPRP, the “shrunken log2 fold change” value stood at 0.534.

On to RRIRRRPPRLPRPRPRPCYYPRP, for which the “shrunken log2 fold change” value was 0.0129. The figure for RRIRRRPPRLPRPRPRPRDYPRP is -0.116; for RRIRLRPPRLPRPRPRPGQLPRP it is -0.0554. Turning to RRIRRRPPRLPRPRPRPCCLPRP, the “shrunken log2 fold change” value was 0.0396. With RRIRNRPPRLPRPRPRPSDEPRP, the “shrunken log2 fold change” value is -0.189. Under RRIRLRPPRLPRPRPRPQFFPRP stands 0.551; under RRIRLRPPRLPRPRPRPRQMPRP, 0.208; under RRIRFRPPRLPRPRPRPFEFPRP, -0.183. As for RRIRDRPPRLPRPRPRPTLPPRP, the “shrunken log2 fold change” value is -0.027.

For the sequence RRIRSRPPRLPRPRPRPLEHPRP, the “shrunken log2 fold change” value was found to be 0.0173. Under RRIRWRPPRLPRPRPRPMSTPRP stands -0.111. Under RRIRDRPPRLPRPRPRPAIWPRP stands 0.24; under RRIRLRPPRLPRPRPRPRDRPRP, 3.43. Under RRIRNRPPRLPRPRPRPLRWPRP stands 1.25.

As for RRIRPRPPRLPRPRPRPQRDPRP, the “shrunken log2 fold change” value was 0.116. Regarding RRIRVRPPRLPRPRPRPKCFPRP, the “shrunken log2 fold change” value was -0.213. RRIRWRPPRLPRPRPRPELKPRP: the “shrunken log2 fold change” value came to 0.276. Under RRIRPRPPRLPRPRPRPECAPRP stands 0.698; under RRIRDRPPRLPRPRPRPDNMPRP, 0.0341; under RRIRVRPPRLPRPRPRPNPSPRP, 0.0073. In the case of RRIRTRPPRLPRPRPRPGRGPRP, the “shrunken log2 fold change” value is 0.605. RRIRPRPPRLPRPRPRPLWRPRP: the “shrunken log2 fold change” value is 0.446.

Regarding RRIRHRPPRLPRPRPRPVMNPRP, the “shrunken log2 fold change” value is -0.0175. The figure for RRIRKRPPRLPRPRPRPSYKPRP is -0.692; for RRIRPRPPRLPRPRPRPQVIPRP it is -0.0452. Turning to RRIRFRPPRLPRPRPRPQIHPRP, the “shrunken log2 fold change” value is -0.995.

Turning to RRIRQRPPRLPRPRPRPQTMPRP, the “shrunken log2 fold change” value stood at 0.0333. Regarding RRIRERPPRLPRPRPRPFKDPRP, the “shrunken log2 fold change” value was -0.0062. On to RRIRARPPRLPRPRPRPVNFPRP, for which the “shrunken log2 fold change” value was found to be 0.629. Under RRIRDRPPRLPRPRPRPAIMPRP stands 0.373.

Turning to RRIRDRPPRLPRPRPRPSYPPRP, the “shrunken log2 fold change” value is -0.2. Under RRIRHRPPRLPRPRPRPIYHPRP stands -0.0782. Under RRIRFRPPRLPRPRPRPAHVPRP stands -0.0462.

Turning to RRIRNRPPRLPRPRPRPYCPPRP, the “shrunken log2 fold change” value was -0.187. Under RRIRQRPPRLPRPRPRPRVCPRP stands 0.303; under RRIRNRPPRLPRPRPRPSIHPRP, -0.185; under RRIRCRPPRLPRPRPRPQTGPRP, -0.144. With RRIRPRPPRLPRPRPRPCPAPRP, the “shrunken log2 fold change” value is -0.0349. As for RRIRHRPPRLPRPRPRPHKQPRP, the “shrunken log2 fold change” value is -0.225. Consider RRIRVRPPRLPRPRPRPDSRPRP, for which the “shrunken log2 fold change” value amounted to 0.0857.

In the case of RRIRERPPRLPRPRPRPATFPRP, the “shrunken log2 fold change” value is -0.177. The figure for RRIRVRPPRLPRPRPRPYMGPRP is -0.895; for RRIRYRPPRLPRPRPRPCLNPRP it is -0.216; for RRIRCRPPRLPRPRPRPLSVPRP it is -0.481. Under RRIRLRPPRLPRPRPRPQKYPRP stands -0.442. For RRIRGRPPRLPRPRPRPIATPRP, the “shrunken log2 fold change” value stood at 3. Turning to RRIRPRPPRLPRPRPRPGASPRP, the “shrunken log2 fold change” value came to 0.344. Under RRIRFRPPRLPRPRPRPKEFPRP stands -0.0812. The figure for RRIRERPPRLPRPRPRPECTPRP is 0.187. Regarding RRIRGRPPRLPRPRPRPMHWPRP, the “shrunken log2 fold change” value turned out to be 0.382.

Consider RRIRERPPRLPRPRPRPQMFPRP, for which the “shrunken log2 fold change” value is 0.0221. Under RRIRWRPPRLPRPRPRPHWWPRP stands 0.629. The figure for RRIRERPPRLPRPRPRPDEIPRP is -0.111; for RRIRMRPPRLPRPRPRPWSLPRP it is -0.385. The figure for RRIRCRPPRLPRPRPRPWWPPRP is 0.0266. Turning to RRIRRRPPRLPRPRPRPGHMPRP, the “shrunken log2 fold change” value was 0.101. For the sequence RRIRIRPPRLPRPRPRPLGLPRP, the “shrunken log2 fold change” value was -0.177. Under RRIRERPPRLPRPRPRPSYNPRP stands -0.924; under RRIRIRPPRLPRPRPRPIAEPRP, -0.22; under RRIRKRPPRLPRPRPRPHAEPRP, 0.126. For RRIRRRPPRLPRPRPRPILTPRP, the “shrunken log2 fold change” value worked out at 0.447. Consider RRIRPRPPRLPRPRPRPMPLPRP, for which the “shrunken log2 fold change” value was -0.0538. The figure for RRIRDRPPRLPRPRPRPDPMPRP is 0.0611; for RRIRVRPPRLPRPRPRPPTLPRP it is 0.252. The figure for RRIRYRPPRLPRPRPRPFKWPRP is -0.278. The figure for RRIRDRPPRLPRPRPRPVHIPRP is -0.144. Turning to RRIRYRPPRLPRPRPRPWFHPRP, the “shrunken log2 fold change” value is -0.17. As for RRIRARPPRLPRPRPRPPTLPRP, the “shrunken log2 fold change” value worked out at 0.503.

For the sequence RRIRDRPPRLPRPRPRPELYPRP, the “shrunken log2 fold change” value came out at 1.13. As to RRIRLRPPRLPRPRPRPCAAPRP, the “shrunken log2 fold change” value worked out at 0.236. The figure for RRIRARPPRLPRPRPRPMNVPRP is -0.163; for RRIRKRPPRLPRPRPRPKGVPRP it is 0.286; for RRIRGRPPRLPRPRPRPEFVPRP it is 1.15. Under RRIRSRPPRLPRPRPRPDSGPRP stands -0.02; under RRIRCRPPRLPRPRPRPCMIPRP, -0.23. The figure for RRIRHRPPRLPRPRPRPFGRPRP is -0.0135; for RRIRHRPPRLPRPRPRPSVSPRP it is -0.0167.

As for RRIRTRPPRLPRPRPRPSMMPRP, the “shrunken log2 fold change” value was -0.0802. The figure for RRIRIRPPRLPRPRPRPAMPPRP is 0.0692; for RRIRMRPPRLPRPRPRPYSDPRP it is -0.329; for RRIRKRPPRLPRPRPRPNDDPRP it is 0.414.

With RRIRERPPRLPRPRPRPWSKPRP, the “shrunken log2 fold change” value is -0.466. In the case of RRIRIRPPRLPRPRPRPDYRPRP, the “shrunken log2 fold change” value was 0.0581. The figure for RRIRCRPPRLPRPRPRPVMRPRP is 0.16; for RRIRIRPPRLPRPRPRPTYKPRP it is -1.09; for RRIRDRPPRLPRPRPRPHTSPRP it is 0.0247. Under RRIRYRPPRLPRPRPRPCPVPRP stands -0.143; under RRIRPRPPRLPRPRPRPQWWPRP, 0.111; under RRIRWRPPRLPRPRPRPRRKPRP, 0.178. Under RRIRNRPPRLPRPRPRPIRAPRP stands -0.0265; under RRIRERPPRLPRPRPRPNGYPRP, -0.193; under RRIRQRPPRLPRPRPRPRFHPRP, -0.177. Turning to RRIRRRPPRLPRPRPRPSPMPRP, the “shrunken log2 fold change” value amounted to 1.54. With RRIRLRPPRLPRPRPRPRIQPRP, the “shrunken log2 fold change” value amounted to 0.239. Under RRIRSRPPRLPRPRPRPRYFPRP stands -0.0823; under RRIRWRPPRLPRPRPRPAHTPRP, -0.172; under RRIRHRPPRLPRPRPRPDPKPRP, 0.0039. Turning to RRIRGRPPRLPRPRPRPLIQPRP, the “shrunken log2 fold change” value is 0.827. As to RRIRERPPRLPRPRPRPLFDPRP, the “shrunken log2 fold change” value is -0.581.

Turning to RRIRWRPPRLPRPRPRPNPHPRP, the “shrunken log2 fold change” value was -0.0669.

Take RRIRWRPPRLPRPRPRPAVKPRP: the “shrunken log2 fold change” value was -0.197.

On to RRIRLRPPRLPRPRPRPHSHPRP, for which the “shrunken log2 fold change” value amounted to 1.65. RRIRIRPPRLPRPRPRPGWMPRP: the “shrunken log2 fold change” value worked out at 0.0116. Turning to RRIRSRPPRLPRPRPRPLQSPRP, the “shrunken log2 fold change” value worked out at 0.49. For the sequence RRIRSRPPRLPRPRPRPQLGPRP, the “shrunken log2 fold change” value amounted to 0.115.
